Experimental data published in patent publication US20200138943A1 (Janssen / Centocor, published 2020).
Positions count from the first letter of the chain named. Values belong to the binder of their own block, whether it stands above or below them.

Experiments:
human recombinant IL-23 [1] = target: T1, human recombinant IL-23 (human, UniProt P29460 23-328); assay: blocking ELISA: biotinylated hrIL-23 preincubated with the titrated protein, binding to plate-immobilized IL-23R detected with HRP-streptavidin
T1 construct: p19-p40 heterodimer; also called hrIL-23; hIL-23
T1 sequence 1: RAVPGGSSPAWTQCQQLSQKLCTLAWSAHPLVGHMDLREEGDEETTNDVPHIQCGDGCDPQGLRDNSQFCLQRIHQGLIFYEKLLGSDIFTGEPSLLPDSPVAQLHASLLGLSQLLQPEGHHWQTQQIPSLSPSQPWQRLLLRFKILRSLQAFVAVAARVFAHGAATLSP
T1 sequence 2: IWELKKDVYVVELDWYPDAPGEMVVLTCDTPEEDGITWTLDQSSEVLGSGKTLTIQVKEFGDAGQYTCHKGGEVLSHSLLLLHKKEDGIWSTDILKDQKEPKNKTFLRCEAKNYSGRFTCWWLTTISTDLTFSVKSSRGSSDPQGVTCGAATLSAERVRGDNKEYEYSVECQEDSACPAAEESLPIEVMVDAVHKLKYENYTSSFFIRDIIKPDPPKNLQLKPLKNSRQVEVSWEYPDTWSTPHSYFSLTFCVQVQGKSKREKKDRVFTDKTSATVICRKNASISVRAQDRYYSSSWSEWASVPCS
Procedure: (§1) In this experiment, IL-23R was immobilized on a plate. Biotinylated hrIL-23 was added to the plate either alone or after preincubation with individual IL-23p19 mAbs. Soluble IL-23R (IL-23R-Fc) was used as a positive control. IL-23 binding was detected with HRP-conjugated streptavidin. […] In contrast, when IL-12Rβ1 was immobilized on a plate, none of the IL-23p19 mAbs were able to inhibit IL-23/IL-12Rβ1 binding (data not shown).

human recombinant IL-23 [2] = target: T1, human recombinant IL-23; assay: as above; remark: listed apart in the source
Procedure: as §1

human recombinant IL-23 [3] = target: T1, human recombinant IL-23; assay: ELISA: mAb immobilized on the plate, biotinylated IL-23 (bt.IL-23) titrated from about 0.01 to 100 ng/ml
murine IL-23 = target: T2, murine IL-23 (mouse, UniProt Q9EQ14 22-196; P43432 23-335); assay: MSD ELISA: protein coated at 100 to 0 µg/mL, detected with 2 µg/mL Sulfo-TAG labeled mAb
T2 construct: also called mouse IL-23
T2 sequence (looked up) 1: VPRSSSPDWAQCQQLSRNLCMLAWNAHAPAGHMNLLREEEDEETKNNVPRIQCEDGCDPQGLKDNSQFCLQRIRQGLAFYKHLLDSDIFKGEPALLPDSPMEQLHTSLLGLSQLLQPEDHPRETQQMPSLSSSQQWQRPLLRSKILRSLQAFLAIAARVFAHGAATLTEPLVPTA
T2 sequence (looked up) 2: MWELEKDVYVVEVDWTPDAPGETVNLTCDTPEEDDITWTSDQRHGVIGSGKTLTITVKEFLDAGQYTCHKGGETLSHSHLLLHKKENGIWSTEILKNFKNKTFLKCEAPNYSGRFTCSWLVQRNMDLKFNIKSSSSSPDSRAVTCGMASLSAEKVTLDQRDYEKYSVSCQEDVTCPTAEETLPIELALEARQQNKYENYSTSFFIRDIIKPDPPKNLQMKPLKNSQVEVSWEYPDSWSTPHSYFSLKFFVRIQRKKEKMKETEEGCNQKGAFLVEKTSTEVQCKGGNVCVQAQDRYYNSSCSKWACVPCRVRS
Procedure: One-hundred and fifty μl of 5% MSD Blocker A buffer was added to each well and incubated for 1 hr at room temperature. Plates were washed three times with 0.1 M HEPES buffer, pH 7.4. These protein-charged ELISA micro-wells were incubated with 25 μl of 2 μg/mL MSD Sulfo-TAG labeled C1249, C1269, or CNTO 209 mAbs. After incubation for 2 hours with shaking at room temperature, plates were washed 3 times with 0.1 M HEPES buffer (pH 7.4). MSD Read Buffer T was diluted with distilled water (4 fold) and dispensed at a volume of 150 μl/well and analyzed with a SECTOR imager 6000.

[4] = target: T3, human recombinant p40 monomer (human, UniProt P29460 23-328); assay: cytokine capture ELISA: mAb coated on the plate, cytokine at 100 ng/ml, detected with biotinylated anti-p40 mAb and HRP-streptavidin
T3 construct: also called hrp40
T3 sequence (looked up): T1 sequence 2
Procedure: (§2) Purified mouse anti-human IL-23 mAbs were evaluated in cytokine capture ELISA to determine their antigen subunit specificity. Briefly, IL-23 mAbs were coated onto plates and incubated with 100 ng/ml (hr=human recombinant) hrIL-23, hrIL-12, and hrp40, respectively. Following incubation with biotinylated anti-p40 mAb, the binding was detected using HRP-conjugated streptavidin. An anti-p40 mAb and an anti-IL-12 mAb (20C2, Catalog No. 555065, BD Pharmingen, San Diego, Calif.) with known specificity were used as controls.

human recombinant IL-12 = target: T4, human recombinant IL-12 (human, UniProt P29459 23-219; P29460 23-328); assay: as above
T4 construct: p35-p40 heterodimer; also called hrIL-12
T4 sequence (looked up) 1: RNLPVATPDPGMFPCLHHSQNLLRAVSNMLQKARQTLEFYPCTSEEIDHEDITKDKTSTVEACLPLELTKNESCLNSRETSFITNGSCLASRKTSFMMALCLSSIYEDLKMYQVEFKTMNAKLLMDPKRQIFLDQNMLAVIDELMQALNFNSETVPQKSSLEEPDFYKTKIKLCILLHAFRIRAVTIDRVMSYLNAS
T4 sequence (looked up) 2: T1 sequence 2
Procedure: as §2

[5] = target: mutant human IL-23 protein 3397 (human) (UniProt P29460); assay: MSD ELISA, coated IL-23 protein, Sulfo-TAG labeled mAb
[6] = target: mutant human IL-23 protein 3220 (human) (UniProt P29460); assay: as above
human recombinant IL-23 [7] = target: T1, human recombinant IL-23; assay: blocking ELISA: biotinylated hrIL-23 preincubated with the titrated mAb, binding to plate-immobilized IL-23R detected with HRP-streptavidin
Procedure: as §1

human recombinant IL-23 [8] = target: T1, human recombinant IL-23; assay: competition ELISA: hIL-23 coated on the plate, 10 nM labeled C1269 mixed with the unlabeled competitor titrated from 3000 nM to 0
Procedure: […] of a 20 μg/ml hIL-23 coated on plate, mixed with 10 nM of labeled C1269 and serially diluted from 3000 nM to 0 unlabeled competitors, C1269 and C1249, in 25 μL. Relative binding was calculated by setting the signal in the absence of competitor to 100%.

B1: Soluble IL-23R (IL-23R-Fc) (Fc fusion, UniProt Q5VWK5 24-353, looked up, not shown: a dimerising Fc or GST)
chain: GITNINCSGHIWVEPATIFKMGMNISIYCQAAIKNCQPRKLHFYKNGIKERFQITRINKTTARLWYKNFLEPHASMYCTAECPKHFQETLICGKDISSGYPPDIPDEVTCVIYEYSGNMTCTWNAGKLTYIDTKYVVHVKSLETEEEQQYLTSSYINISTDSLQGGKKYLVWVQAANALGMEESKQLQIHLDDIVIPSAAVISRAETINATVPKTIIYWDSQTTIEKVSCEMRYKATTNQTWNVKEFDTNFTYVQQSEFYLEPNIKYVFQVRCQETGKRYWQPWSSLFFHKTPETVPQVTSKAFQHDTWNSGLTVASISTGHLTSDNRGD
IC50 (read off the curve) (human recombinant IL-23 [1]): ~0.05 µg/mL
IC50 (read off the curve) (human recombinant IL-23 [2]): ~0.04 µg/mL

B4: C1269 (antibody, V domains shown)
VH: DVNLVESGGGLVKPGGSLKLSCAASGFTFSSYTMSWVRQTPEKRLEWVATISSGGTYTYYPDSVKGRFTISRDNAKNTLYLQMSSLKSEDTAIFYCTRDNHAYDRGPFFDSWGQGATLTVSS
VL: DIVMSQSPSSLAVSVGEKVTMSCKSSQNLFYRNNQKNYLAWYQQKPGQSPTLLIYWTSTRESGVPDRFTGSGSGTDFTLTISRVKAEDLAVYYCQQYYSYPPTFGGGTKLEIK
notes: Purified mouse monoclonal antibody; also called IL-23p19 mAb; mouse anti-human IL-23 mAb
binding result (murine IL-23): no binding
binding result [4]: no binding (tested: 100 ng/ml)
binding result (human recombinant IL-12): no binding (tested: 100 ng/ml)
IC50 (read off the curve) (human recombinant IL-23 [7]): ~0.07 µg/mL
IC50 (read off the curve) (human recombinant IL-23 [8]): ~20 nM
percent reduction of binding against wild-type human IL-23 [5]: 90%
percent reduction of binding activity against wild-type human IL-23 [6]: > 80%

Further lines, results first:

binding result (human recombinant IL-23 [3]): binds
binding result (murine IL-23): no binding
binding result [4]: no binding (tested: 100 ng/ml)
binding result (human recombinant IL-12): no binding (tested: 100 ng/ml)
percent reduction of binding against wild-type human IL-23 [5]: 95%
percent reduction of binding activity against wild-type human IL-23 [6]: > 80%
B2: C1249 (antibody, V domains shown)
VH: EVQLVESGGGLVQPKGSLKLSCAASGFNFNTYAMHWVCQAPGKGLEWIGRIRSKSHNYATDYADPVKDRFTISRDDSQGLLYLLMNNLKTEDTAMYYCMREGIYGSFAYWGQGTLVTVSA
VL: DIVLTQSPASLAVSLGQRATISCRASKSVSSSAYSFFHWYQQKPGQPPKLLIYLASNLQSGVPARFSGSGSGTDFTLNIHPVEAEDAATYYCQHSGELPFTFGSGTKLEIK
notes: as for B4

binding result (human recombinant IL-23 [3]): binds
binding result [4]: no binding (tested: 100 ng/ml)
binding result (human recombinant IL-12): no binding (tested: 100 ng/ml)
B3: C1275 (antibody, V domains shown)
VH: EVNLEESGGGLVQPGRSMKLSCVASGFTFSNYWMTWVRQSPEKGLEWVAEIRLKSNNYATHYAESVKGRFTISRDDSKSSVYLQMNNLRAEDTAIYYCTRGGGYDVGAWFAYWGQGTLVTVSA
VL: DIVLTQSPASLAVSLGQRATISCRASENVEYYGTGLIQWYQQKPGQPPKLLIYASSNVESGVPARFSGSGSGTDFSLYIHPVEEDDIAMYFCQQSRKVPSTFGGGTKLEIK
notes: as for B4

binding result [4]: no binding (tested: 100 ng/ml)
binding result (human recombinant IL-12): no binding (tested: 100 ng/ml)
IC50 (read off the curve) (human recombinant IL-23 [7]): ~0.1 µg/mL
B5: C1273 (antibody, V domains shown)
VH: B4 VH with I93M, S111Y
VL: B4 VL with A12V, N33S, Y38H
notes: as for B4
